Laboratory results from patent publication US20250376539A1 (KIRA PHARMACEUTICALS SUZHOU, published 2025).
Blank lines part the entries; values can stand above or below the binder they belong to.

Key:
[1] = biological target: T1, recombinant human complement C2 (NP_000054.2), C-terminal 6His-tag, made in house (CHO cell expression) (human, UniProt P06681 21-752); assay: drawn kinetic table; method and antigen not printed on the sheet, legend paragraph 101 says only anti-C2 antibodies; human C2 taken from the context of Examples 5 and 10
T1 construct: a linker before the tag is not described; also called human C2; Human C2
T1 sequence: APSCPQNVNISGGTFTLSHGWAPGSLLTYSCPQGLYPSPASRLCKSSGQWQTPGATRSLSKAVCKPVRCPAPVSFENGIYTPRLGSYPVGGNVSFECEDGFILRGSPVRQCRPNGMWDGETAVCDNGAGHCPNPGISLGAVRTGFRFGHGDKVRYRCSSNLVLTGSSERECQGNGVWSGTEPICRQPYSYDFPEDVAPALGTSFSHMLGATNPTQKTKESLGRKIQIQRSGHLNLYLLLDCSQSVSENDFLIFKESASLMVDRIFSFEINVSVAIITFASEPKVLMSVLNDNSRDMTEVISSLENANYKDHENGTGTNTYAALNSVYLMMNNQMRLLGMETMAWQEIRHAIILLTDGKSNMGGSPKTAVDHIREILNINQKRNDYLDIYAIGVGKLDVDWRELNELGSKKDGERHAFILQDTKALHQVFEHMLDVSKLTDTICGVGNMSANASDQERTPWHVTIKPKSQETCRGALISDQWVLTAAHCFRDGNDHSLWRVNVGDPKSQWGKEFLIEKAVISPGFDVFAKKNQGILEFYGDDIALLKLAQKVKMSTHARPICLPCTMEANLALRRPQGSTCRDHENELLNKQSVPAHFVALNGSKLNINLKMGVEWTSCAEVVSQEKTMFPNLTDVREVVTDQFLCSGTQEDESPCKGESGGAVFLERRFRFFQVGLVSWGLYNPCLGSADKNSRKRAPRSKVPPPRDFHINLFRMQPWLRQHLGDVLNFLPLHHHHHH

[2] = biological target: T2, recombinant cynomolgus (cyno) complement C2 (XP_005553508.1), C-terminal 6His-tag, made in house (CHO cell … (cynomolgus monkey (Macaca fascicularis), UniProt P06681 21-752 (human entry))); assay: BLI (Gator); ratio of dissociation at pH 5.8 to pH 7.4
T2 construct: also called cyno C2; Cyno C2
T2 chain: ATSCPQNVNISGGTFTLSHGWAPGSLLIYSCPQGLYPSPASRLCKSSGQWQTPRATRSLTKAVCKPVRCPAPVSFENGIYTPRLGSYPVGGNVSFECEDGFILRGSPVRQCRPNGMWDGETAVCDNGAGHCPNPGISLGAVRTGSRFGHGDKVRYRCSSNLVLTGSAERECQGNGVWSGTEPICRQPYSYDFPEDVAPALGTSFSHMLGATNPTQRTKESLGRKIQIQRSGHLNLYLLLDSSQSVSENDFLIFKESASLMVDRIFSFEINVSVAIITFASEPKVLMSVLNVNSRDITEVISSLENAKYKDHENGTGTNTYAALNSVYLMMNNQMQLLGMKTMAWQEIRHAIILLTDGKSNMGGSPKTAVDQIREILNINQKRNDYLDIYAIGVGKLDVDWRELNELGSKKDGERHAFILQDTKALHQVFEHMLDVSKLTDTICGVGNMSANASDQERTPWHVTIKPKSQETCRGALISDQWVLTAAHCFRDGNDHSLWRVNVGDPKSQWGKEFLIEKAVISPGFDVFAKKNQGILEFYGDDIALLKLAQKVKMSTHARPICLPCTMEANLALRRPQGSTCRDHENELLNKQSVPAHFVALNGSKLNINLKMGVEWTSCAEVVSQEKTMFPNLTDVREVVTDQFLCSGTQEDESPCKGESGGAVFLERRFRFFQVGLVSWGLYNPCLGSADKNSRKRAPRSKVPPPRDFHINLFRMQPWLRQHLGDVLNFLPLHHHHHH
Procedure: (§1) The histidine mutant constructs in Table 4 were tested for their pH-dependent dissociation from human C2. Probe-immobilized anti-C2 antibodies were incubated with C2 at pH 7.4 for 600s, followed by a 600s dissociation period in K Buffer at pH 7.4 or pH 5.8. The data were processed and analyzed by the Gator evaluation software.
(§2) Non-fusion mAb were used for comparison.

[3] = biological target: T1, recombinant human complement C2 …; assay: as above
Procedure: as §1, §2

[4] = biological target: T1, recombinant human complement C2 …; assay: binding kinetics, neutral pH (BLI presumed)
[5] = biological target: T2, recombinant cynomolgus (cyno) …; assay: BLI (Gator), antibody on probe; 600 s association at pH 7.4, 600 s dissociation at pH 7.4
Procedure: as §1, §2

[6] = biological target: T1, recombinant human complement C2 …; assay: as above
Procedure: as §1, §2

[7] = biological target: T2, recombinant cynomolgus (cyno) …; assay: BLI (Gator), antibody on probe; 600 s association at pH 7.4, 600 s dissociation at pH 5.8
Procedure: as §1, §2

[8] = biological target: T1, recombinant human complement C2 …; assay: as above
Procedure: as §1, §2

[9] = biological target: T2, recombinant cynomolgus (cyno) …; assay: binding kinetics (BLI presumed)
[10] = biological target: T1, recombinant human complement C2 …; assay: kinetic binding measurement, table 'Human C2 binding affinity' with sensorgrams below it (assay not named on the sheet); lot 20211228P03
[11] = biological target: T1, recombinant human complement C2 …; assay: kinetic binding measurement, table 'Human C2 binding affinity' with sensorgrams below it (assay not named on the sheet); lot 20211215P05
[12] = biological target: T3, recombinant cyno C2a, C-terminal 6His-tag, made in house (CHO cell expression) (cynomolgus monkey, UniProt P06681 244-752 (human entry)); assay: ELISA
T3 chain: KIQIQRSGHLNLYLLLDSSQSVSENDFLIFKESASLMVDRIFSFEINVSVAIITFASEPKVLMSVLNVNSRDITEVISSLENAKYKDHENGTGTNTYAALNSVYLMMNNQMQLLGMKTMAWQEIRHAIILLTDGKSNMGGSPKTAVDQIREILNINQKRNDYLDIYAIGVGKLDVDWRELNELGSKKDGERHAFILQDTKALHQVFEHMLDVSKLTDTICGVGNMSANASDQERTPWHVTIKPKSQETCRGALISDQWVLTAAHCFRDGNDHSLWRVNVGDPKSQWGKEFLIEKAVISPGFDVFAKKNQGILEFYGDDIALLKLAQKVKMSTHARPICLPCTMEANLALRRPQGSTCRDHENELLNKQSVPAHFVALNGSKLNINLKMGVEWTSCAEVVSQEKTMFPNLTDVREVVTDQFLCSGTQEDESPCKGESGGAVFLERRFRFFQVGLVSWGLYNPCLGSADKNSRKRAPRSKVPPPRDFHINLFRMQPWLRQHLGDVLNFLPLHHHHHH

[13] = biological target: T4, recombinant human C2a, C-terminal 6His-tag, made in house (CHO cell expression) (human, UniProt P06681 244-752); assay: ELISA
T4 sequence: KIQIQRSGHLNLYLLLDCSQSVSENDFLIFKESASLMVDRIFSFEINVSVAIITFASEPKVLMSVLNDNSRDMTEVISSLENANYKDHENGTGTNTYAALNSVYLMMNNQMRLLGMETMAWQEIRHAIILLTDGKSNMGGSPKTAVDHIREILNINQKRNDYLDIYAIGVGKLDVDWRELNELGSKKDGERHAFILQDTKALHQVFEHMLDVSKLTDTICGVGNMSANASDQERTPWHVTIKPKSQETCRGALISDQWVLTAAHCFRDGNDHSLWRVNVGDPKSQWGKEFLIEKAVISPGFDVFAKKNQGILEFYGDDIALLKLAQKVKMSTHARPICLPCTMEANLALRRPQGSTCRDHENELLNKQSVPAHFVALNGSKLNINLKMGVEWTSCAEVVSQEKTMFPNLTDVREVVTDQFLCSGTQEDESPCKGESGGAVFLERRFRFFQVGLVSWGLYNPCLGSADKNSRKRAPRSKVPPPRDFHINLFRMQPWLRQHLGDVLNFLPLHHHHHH

[14] = biological target: T2, recombinant cynomolgus (cyno) …; assay: ELISA
[15] = biological target: T1, recombinant human complement C2 …; assay: ELISA

EC50 [12]: 0.208 nM
EC50 [13]: 0.131 nM
EC50 [14]: 0.115 nM
EC50 [15]: 0.0599 nM
B4: anti-C2 antibody 139.14 (antibody, IgG4, V domains shown)
VH: QVQLRESGPGLMKPSETLSLTCTVSGGSVSSGVYYWTWIRQPPGKGLEWIGSMFYSGNADYNPSLKSRVTISVDTSKNQFSLRLNSVSAADMAVYYCARGYASGWSYYFDYWGQATLVTVSS
VL: SSELTQDPTVSVALGQTVRITCQGDSLRTYYASWYQQKPGQAPVLVLYGKNNRPSGIPDRFSGSSSGNTASLTITGAQAEDEADYYCNSRYSSGTHVVFGGGTKLTVL
notes: Recombinant

EC50 [12]: 0.123 nM
EC50 [13]: 0.124 nM
EC50 [14]: 0.263 nM
EC50 [15]: 0.054 nM
B5: anti-C2 antibody 59.45 (antibody, IgG4, V domains shown)
VH: QLQLQESGPGLVKTSETLSLTCTVSGGSITSGVYYWGWIRQPPGKGLEWIGSIYHGGNTYNNPSLKSRVTIFIDTSKNQFSLKLSSVTAADTAVYYCAEGVSSGWSYYFDYWGQGTLVTVSS
VL: SSELTQDPAVSVALGQTVRITCQGDSLRRFYASWYQQKPGQAPVLVGYGKNNRPSGIPDRFSGSTSGNAASLTITGSQAEDEADYYCNSRDSSGDHLIFGGGTKLTVL
notes: Recombinant

Further lines, the binder ahead of its results:

B1: 3.2pHGL (3.2 pH construct derived from a human germline framework sequence) (antibody, V domains shown)
VH: EVQLLESGGGLVQPGGSLRLSCAASGFTFRHYAMSWVRQAPGKGLEWVSLISGSGASTHYADSVKGRFTISRDNSKNTLYLQMNSLRAEDTAVYYCAKDSLAVAGSEYFQHWGQGTLVTVSS
VL: SYVLTQPPSVSVAPGQTARITCGHNYFGGKSVHWYQQKPGQAPVLVVYDDSDRPSGIPERFSGSNSGNTATLTISRVEAGDEADYYCQVYDTSSDHWVFGGGTKLTVL
notes: also called germlined 3.2 pH
Kd [1]: 0.138 nM
koff [1]: 4.05e-05 s⁻¹
kon [1]: 294000 M⁻¹ s⁻¹

B2: 3.2 H2-10 (a representative pH dependent 3.2 comprising a histidine mutation in the heavy chain CDR2) (antibody, V domains shown)
VH: EVQLLESGGGLVQPGGSLRLSCAASGFTFRHYAMSWVRQAPGKGLEWVSLISGSGASTHYADSVKGRFTISRDNSENMLYLQMNSLRAEDTAVYYCAKDSLAVAGSEYFQHWGQGTLVTVSS
VL: SYVLTQAPSVSVAPGQTARITCGGNYFGGKSVHWYQQRPGQAPVLVVYDDSDRPSGIPERFSGSKSGNTATLAISRVEAGDEAAYYCQVYDTSSDHWVFGGGTKLTVL
Fold dissociation pH 5.8/pH 7.4 [2]: 7.53 fold
Fold dissociation pH 5.8/pH 7.4 [3]: 8.2 fold
Kd [4]: 0.172 nM
koff [4]: 6.05e-05 s⁻¹
kon [4]: 353000 M⁻¹ s⁻¹
Dissociation (%) pH 7.4 [5]: 8.35%
Dissociation (%) pH 7.4 [6]: 6.91%
Dissociation (%) pH 5.8 [7]: 62.9%
Dissociation (%) pH 5.8 [8]: 56.7%
Kd [9]: 0.222 nM
koff [9]: 9.84e-05 s⁻¹
kon [9]: 442000 M⁻¹ s⁻¹

B3: 3.2pHGL-IgG1-LALA-LS (3.2 pH-IgG1-LALA-LS derived from germline) (antibody, V domains shown)
VH: EVQLLESGGGLVQPGGSLRLSCAASGFTFRHYAMSWVRQAPGKGLEWVSLISGSGASTHYADSVKGRFTISRDNSKNTLYLQMNSLRAEDTAVYYCAKDSLAVAGSEYFQHWGQGTLVTVSS
VL: SYVLTQPPSVSVAPGQTARITCGHNYFGGKSVHWYQQKPGQAPVLVVYDDSDRPSGIPERFSGSNSGNTATLTISRVEAGDEADYYCQVYDTSSDHWVFGGGTKLTVLG
notes: Heavy chain put together from the named parts
Kd [10]: 0.101 nM
koff [10]: 3.33e-05 s⁻¹
kon [10]: 330000 M⁻¹ s⁻¹
Kd [11]: 0.149 nM
koff [11]: 4.58e-05 s⁻¹
kon [11]: 309000 M⁻¹ s⁻¹
